Test results published in paper PMC3127458 (Biochemistry, 2010).
Positions count from the first letter of the chain named. In names and notes the source's numbering stands.

B1: AppA Q63E full-length (natural protein, Rhodobacter sphaeroides, UniProt Q53119 1-450, looked up)
chain: MQHDLEADVTMTGSDLVSCCYRSLAAPDLTLRDLLDIVETSQAHNARAQLTGALFYSQGVFFEWLEGRPAAVAEVMTHIQRDRRHSNVEILAEEPIAKRRFAGWHMQLSCSEADMRSLGLAESRQIVTVGRSLVADNTNIFSFDRIAAVRRFLSDVCAARTLAPDTPVEADTFALYALTEAQAGRSGRAKAVARLSDLLSTDPLGRLTEVEELLRAHAPTAADFARLFEACAERLTRALAEDRISRMQVTLAYSALQMALRRIHHLPDPQKSVGAVLVAGVPGHKPILEAALAAEMLRAVGWSTSVVHPESVAALAARLKTSRTSTLVVAPSLLEGTEQEADTLRFVSALRARTDLPGLSILVGGRLAQLPPSKLKDSGADAGFAHLALLPAALARVACPANADCCSMRACRMPASQCCDKRINPEFLLANVMPSVLTRISSRQDRRRSA
B2: AppA Q63L full-length (natural protein, Rhodobacter sphaeroides, UniProt Q53119 1-450, looked up)
chain: B1 chain with E63L

Biological target: the molecule itself
Assay: SEC

Protein	stoichiometry N
B1	2
B2	2
